From the supplement of paper PMC10567573

B1: RBBP5 (parent)
chain: TGTSNTTAIKSIEFARKGSCFLIN
B2: APBB1IP (parent)
chain: FNYSVGFKDLNESLNALEDQDLDA

Variants of: B1
Test: protein stability index of a GFP-peptide fusion (GPS, HEK-293T) (PSI 1-6); higher = more stable
Conditions: c terminus: a fixed tail appended
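Also: lentivirally expressed fusions sorted by FACS into six bins by GFP to DsRed ratio, PSI derived from sequencing read proportions per bin multiplied by bin number.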

Variant | protein stability index
TGTCNTTAIKSIEFARKGSCFLIN | 2.2
TGTQNTTAIKSIEFARKGSCFLIN | 2.54
TGTFNTTAIKSIEFARKGSCFLIN | 1.97
TGTVNTTAIKSIEFARKGSCFLIN | 2.09
TGTRNTTAIKSIEFARKGSCFLIN | 1.91
TGTHNTTAIKSIEFARKGSCFLIN | 2.3
TGTPNTTAIKSIEFARKGSCFLIN | 2.01
TGTKNTTAIKSIEFARKGSCFLIN | 2.67
TGTGNTTAIKSIEFARKGSCFLIN | 2.17
TGTYNTTAIKSIEFARKGSCFLIN | 2.41
TGTENTTAIKSIEFARKGSCFLIN | 2.35
TGTTNTTAIKSIEFARKGSCFLIN | 1.95
TGTMNTTAIKSIEFARKGSCFLIN | 2.21
TGTANTTAIKSIEFARKGSCFLIN | 2.29
TGTDNTTAIKSIEFARKGSCFLIN | 2.35
TGTLNTTAIKSIEFARKGSCFLIN | 2.17
TGTWNTTAIKSIEFARKGSCFLIN | 1.83
TGTNNTTAIKSIEFARKGSCFLIN | 2.36
TGTINTTAIKSIEFARKGSCFLIN | 2.52
TGTSNQTAIKSIEFARKGSCFLIN | 2.12
TGTSNPTAIKSIEFARKGSCFLIN | 2.29
TGTSNDTAIKSIEFARKGSCFLIN | 2.55
TGTSNITAIKSIEFARKGSCFLIN | 1.63
TGTSNRTAIKSIEFARKGSCFLIN | 1.55

Variant | protein stability index
TGTSNWTAIKSIEFARKGSCFLIN | 1.74
TGTSNCTAIKSIEFARKGSCFLIN | 2.05
TGTSNVTAIKSIEFARKGSCFLIN | 1.87
TGTSNYTAIKSIEFARKGSCFLIN | 1.87
TGTSNATAIKSIEFARKGSCFLIN | 2.87
TGTSNKTAIKSIEFARKGSCFLIN | 2.15
TGTSNMTAIKSIEFARKGSCFLIN | 2.04
TGTSNGTAIKSIEFARKGSCFLIN | 1.98
TGTSNNTAIKSIEFARKGSCFLIN | 3.06
TGTSNSTAIKSIEFARKGSCFLIN | 2.64
TGTSNLTAIKSIEFARKGSCFLIN | 2.16
TGTSNETAIKSIEFARKGSCFLIN | 2.82
TGTSNHTAIKSIEFARKGSCFLIN | 2.67
TGTSNFTAIKSIEFARKGSCFLIN | 2.09
TGESNTTAIKSIEFARKGSCFLIN | 2.55
TGGSNTTAIKSIEFARKGSCFLIN | 2.24
TGVSNTTAIKSIEFARKGSCFLIN | 1.87
TGLSNTTAIKSIEFARKGSCFLIN | 2.17
TGCSNTTAIKSIEFARKGSCFLIN | 1.98
TGWSNTTAIKSIEFARKGSCFLIN | 2.02
TGMSNTTAIKSIEFARKGSCFLIN | 2.2
TGISNTTAIKSIEFARKGSCFLIN | 1.83
TGHSNTTAIKSIEFARKGSCFLIN | 2.52
TGKSNTTAIKSIEFARKGSCFLIN | 2.9

Variant | protein stability index
TGQSNTTAIKSIEFARKGSCFLIN | 2.11
TGYSNTTAIKSIEFARKGSCFLIN | 1.94
TGPSNTTAIKSIEFARKGSCFLIN | 2.46
TGASNTTAIKSIEFARKGSCFLIN | 2.15
TGSSNTTAIKSIEFARKGSCFLIN | 1.9
TGNSNTTAIKSIEFARKGSCFLIN | 1.86
TGFSNTTAIKSIEFARKGSCFLIN | 1.61
TGRSNTTAIKSIEFARKGSCFLIN | 1.88
TGDSNTTAIKSIEFARKGSCFLIN | 2.46
TGTSNTWAIKSIEFARKGSCFLIN | 1.95
TGTSNTSAIKSIEFARKGSCFLIN | 2.4
TGTSNTDAIKSIEFARKGSCFLIN | 2.3
TGTSNTQAIKSIEFARKGSCFLIN | 2.66
TGTSNTNAIKSIEFARKGSCFLIN | 2.14
TGTSNTLAIKSIEFARKGSCFLIN | 1.77
TGTSNTRAIKSIEFARKGSCFLIN | 2.15
TGTSNTIAIKSIEFARKGSCFLIN | 2.23
TGTSNTMAIKSIEFARKGSCFLIN | 1.95
TGTSNTKAIKSIEFARKGSCFLIN | 2.04
TGTSNTEAIKSIEFARKGSCFLIN | 2.51
TGTSNTFAIKSIEFARKGSCFLIN | 1.93
TGTSNTPAIKSIEFARKGSCFLIN | 2.74
TGTSNTHAIKSIEFARKGSCFLIN | 1.97
TGTSNTVAIKSIEFARKGSCFLIN | 1.96

Variant | protein stability index
TGTSNTAAIKSIEFARKGSCFLIN | 2.85
TGTSNTYAIKSIEFARKGSCFLIN | 1.89
TGTSNTGAIKSIEFARKGSCFLIN | 2.56
TGTSNTCAIKSIEFARKGSCFLIN | 1.26
TGTSNTTKIKSIEFARKGSCFLIN | 2.2
TGTSNTTEIKSIEFARKGSCFLIN | 2.71
TGTSNTTGIKSIEFARKGSCFLIN | 2.84
TGTSNTTIIKSIEFARKGSCFLIN | 1.74
TGTSNTTHIKSIEFARKGSCFLIN | 1.85
TGTSNTTDIKSIEFARKGSCFLIN | 2.36
TGTSNTTCIKSIEFARKGSCFLIN | 2.71
TGTSNTTFIKSIEFARKGSCFLIN | 1.81
TKTSNTTAIKSIEFARKGSCFLIN | 2.31
TCTSNTTAIKSIEFARKGSCFLIN | 2.17
TLTSNTTAIKSIEFARKGSCFLIN | 2.18
TNTSNTTAIKSIEFARKGSCFLIN | 2.29
TMTSNTTAIKSIEFARKGSCFLIN | 2.48
TPTSNTTAIKSIEFARKGSCFLIN | 2.63
TFTSNTTAIKSIEFARKGSCFLIN | 1.76
TQTSNTTAIKSIEFARKGSCFLIN | 2.47
TTTSNTTAIKSIEFARKGSCFLIN | 2.14
TWTSNTTAIKSIEFARKGSCFLIN | 2.51
TRTSNTTAIKSIEFARKGSCFLIN | 2.07
TSTSNTTAIKSIEFARKGSCFLIN | 2.11

Variant | protein stability index
TETSNTTAIKSIEFARKGSCFLIN | 2.75
TITSNTTAIKSIEFARKGSCFLIN | 1.89
TYTSNTTAIKSIEFARKGSCFLIN | 3.22
TDTSNTTAIKSIEFARKGSCFLIN | 2.62
TVTSNTTAIKSIEFARKGSCFLIN | 2.44
THTSNTTAIKSIEFARKGSCFLIN | 2.03
TATSNTTAIKSIEFARKGSCFLIN | 2.02
TGTSITTAIKSIEFARKGSCFLIN | 1.95
TGTSWTTAIKSIEFARKGSCFLIN | 1.64
TGTSFTTAIKSIEFARKGSCFLIN | 2.2
TGTSHTTAIKSIEFARKGSCFLIN | 2.12
TGTSSTTAIKSIEFARKGSCFLIN | 2.02
TGTSRTTAIKSIEFARKGSCFLIN | 2.36
TGTSETTAIKSIEFARKGSCFLIN | 2.57
TGTSQTTAIKSIEFARKGSCFLIN | 2.58
TGTSDTTAIKSIEFARKGSCFLIN | 2.35
TGTSCTTAIKSIEFARKGSCFLIN | 1.93
TGTSLTTAIKSIEFARKGSCFLIN | 1.9
TGTSKTTAIKSIEFARKGSCFLIN | 2.15
TGTSPTTAIKSIEFARKGSCFLIN | 2.08
TGTSVTTAIKSIEFARKGSCFLIN | 2.38
TGTSGTTAIKSIEFARKGSCFLIN | 2.12
TGTSTTTAIKSIEFARKGSCFLIN | 2.09
TGTSYTTAIKSIEFARKGSCFLIN | 1.63

Variant | protein stability index
TGTSATTAIKSIEFARKGSCFLIN | 2.1
TGTSMTTAIKSIEFARKGSCFLIN | 1.66
AGTSNTTAIKSIEFARKGSCFLIN | 2.15
FGTSNTTAIKSIEFARKGSCFLIN | 1.88
VGTSNTTAIKSIEFARKGSCFLIN | 1.87
RGTSNTTAIKSIEFARKGSCFLIN | 2.75
IGTSNTTAIKSIEFARKGSCFLIN | 1.79
DGTSNTTAIKSIEFARKGSCFLIN | 3.69
QGTSNTTAIKSIEFARKGSCFLIN | 2.79
LGTSNTTAIKSIEFARKGSCFLIN | 2.11
GGTSNTTAIKSIEFARKGSCFLIN | 2.19
YGTSNTTAIKSIEFARKGSCFLIN | 1.79
WGTSNTTAIKSIEFARKGSCFLIN | 1.69
KGTSNTTAIKSIEFARKGSCFLIN | 2.45
SGTSNTTAIKSIEFARKGSCFLIN | 2.2
NGTSNTTAIKSIEFARKGSCFLIN | 2.3
EGTSNTTAIKSIEFARKGSCFLIN | 3.07
PGTSNTTAIKSIEFARKGSCFLIN | 2.47
MGTSNTTAIKSIEFARKGSCFLIN | 2.43
CGTSNTTAIKSIEFARKGSCFLIN | 1.53
HGTSNTTAIKSIEFARKGSCFLIN | 2.59

Variants of: B2
Test: as above
Conditions: c terminus: a fixed tail appended

Variant | protein stability index
FNYSVGFKDLNESLNALEDQDLEA | 4.22
FNYSVGFKDLNESLNALEDQDLPA | 4.38
FNYSVGFKDLNESLNALEDQDLCA | 3.33
FNYSVGFKDLNESLNALEDQDLTA | 3.85
FNYSVGFKDLNESLNALEDQDLQA | 4.22
FNYSVGFKDLNESLNALEDQDLWA | 1.81
FNYSVGFKDLNESLNALEDQDLSA | 4.02
FNYSVGFKDLNESLNALEDQDLLA | 3.14
FNYSVGFKDLNESLNALEDQDLVA | 3.18
FNYSVGFKDLNESLNALEDQDLHA | 3.69
FNYSVGFKDLNESLNALEDQDLKA | 3.87
FNYSVGFKDLNESLNALEDQDLNA | 4.31
FNYSVGFKDLNESLNALEDQDLGA | 4.41
FNYSVGFKDLNESLNALEDQDLRA | 3.81
FNYSVGFKDLNESLNALEDQDLAA | 3.79
FNYSVGFKDLNESLNALEDQDLMA | 2.86
FNYSVGFKDLNESLNALEDQDLFA | 2.44
FNYSVGFKDLNESLNALEDQDLYA | 2.57
FNYSVGFKDLNESLNALEDQDLIA | 3.56
FNYSVGFKDLNESLNALEDQDLDD | 4.68
FNYSVGFKDLNESLNALEDQDLDK | 4.81
FNYSVGFKDLNESLNALEDQDLDN | 4.5
FNYSVGFKDLNESLNALEDQDLDL | 4.09
FNYSVGFKDLNESLNALEDQDLDV | 4.5

Variant | protein stability index
FNYSVGFKDLNESLNALEDQDLDY | 3.55
FNYSVGFKDLNESLNALEDQDLDI | 4.07
FNYSVGFKDLNESLNALEDQDLDF | 3.85
FNYSVGFKDLNESLNALEDQDLDS | 4.59
FNYSVGFKDLNESLNALEDQDLDG | 3.68
FNYSVGFKDLNESLNALEDQDLDR | 3.83
FNYSVGFKDLNESLNALEDQDLDW | 3.77
FNYSVGFKDLNESLNALEDQDLDE | 4.91
FNYSVGFKDLNESLNALEDQDLDH | 4.52
FNYSVGFKDLNESLNALEDQDLDT | 4.45
FNYSVGFKDLNESLNALEDQDLDC | 4.24
FNYSVGFKDLNESLNALEDQDLDP | 4.42
FNYSVGFKDLNESLNALEDQDLDQ | 4.72
FNYSVGFKDLNESLNALEDQDLDM | 3.85
FNYSVGFKDLNESLNALEDQDSDA | 4.76
FNYSVGFKDLNESLNALEDQDPDA | 4.92
FNYSVGFKDLNESLNALEDQDVDA | 4.6
FNYSVGFKDLNESLNALEDQDYDA | 4.37
FNYSVGFKDLNESLNALEDQDWDA | 3.86
FNYSVGFKDLNESLNALEDQDRDA | 4.5
FNYSVGFKDLNESLNALEDQDTDA | 4.82
FNYSVGFKDLNESLNALEDQDNDA | 4.79
FNYSVGFKDLNESLNALEDQDQDA | 4.67
